Values belong to the molecule of their own block, whether it stands above or below them.
Key:
3×MBT domain of L3MBTL1 = assay: Triple SILAC pull-down, 3xMBT/3xMBTD355N ratio (cytoplasmic, nuclear and chromatin fractions of 293T cells); assay type: binding, human; settings: for 3xMBT/D355N UNC Heavy: experiment with UNC0638 in heavy SILAC media; for 3xMBT/D355N UNC Light: experiment with UNC0638 in light SILAC media;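 on all read-outs here: proteins quantified with MaxQuant, requiring at least two unique peptides and quantification in both label directions, normalized to the mean of proteins from a digested loading control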
G9a and GLP = target: T1, G9a and GLP (Homo sapiens, UniProt Q96KQ7+Q9H9B1); assay: Triple SILAC pull-down after UNC0638 treatment of 293T cells, DMSO/UNC0638 ratio of protein captured by 3×MBT; assay type: cell-based; design: endogenous in cells; host or cells: HEK 293T; settings: for Relative to UNC0638 UNC Heavy: UNC0638 in heavy SILAC media; for Relative to UNC0638 UNC Light: UNC0638 in light SILAC media; for Relative to UNC0638 Average: average of UNC Light and UNC Heavy experiments;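 on all read-outs here: mass spectrometry (Q-Exactive) SILAC quantitation, DMSO/UNC0638 ratio computed after subtracting 3×MBTD355N mutant pull-down background, only proteins with at least twofold 3×MBT over mutant signal considered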
T1 sequence (Q96KQ7 2-1210 limits assumed): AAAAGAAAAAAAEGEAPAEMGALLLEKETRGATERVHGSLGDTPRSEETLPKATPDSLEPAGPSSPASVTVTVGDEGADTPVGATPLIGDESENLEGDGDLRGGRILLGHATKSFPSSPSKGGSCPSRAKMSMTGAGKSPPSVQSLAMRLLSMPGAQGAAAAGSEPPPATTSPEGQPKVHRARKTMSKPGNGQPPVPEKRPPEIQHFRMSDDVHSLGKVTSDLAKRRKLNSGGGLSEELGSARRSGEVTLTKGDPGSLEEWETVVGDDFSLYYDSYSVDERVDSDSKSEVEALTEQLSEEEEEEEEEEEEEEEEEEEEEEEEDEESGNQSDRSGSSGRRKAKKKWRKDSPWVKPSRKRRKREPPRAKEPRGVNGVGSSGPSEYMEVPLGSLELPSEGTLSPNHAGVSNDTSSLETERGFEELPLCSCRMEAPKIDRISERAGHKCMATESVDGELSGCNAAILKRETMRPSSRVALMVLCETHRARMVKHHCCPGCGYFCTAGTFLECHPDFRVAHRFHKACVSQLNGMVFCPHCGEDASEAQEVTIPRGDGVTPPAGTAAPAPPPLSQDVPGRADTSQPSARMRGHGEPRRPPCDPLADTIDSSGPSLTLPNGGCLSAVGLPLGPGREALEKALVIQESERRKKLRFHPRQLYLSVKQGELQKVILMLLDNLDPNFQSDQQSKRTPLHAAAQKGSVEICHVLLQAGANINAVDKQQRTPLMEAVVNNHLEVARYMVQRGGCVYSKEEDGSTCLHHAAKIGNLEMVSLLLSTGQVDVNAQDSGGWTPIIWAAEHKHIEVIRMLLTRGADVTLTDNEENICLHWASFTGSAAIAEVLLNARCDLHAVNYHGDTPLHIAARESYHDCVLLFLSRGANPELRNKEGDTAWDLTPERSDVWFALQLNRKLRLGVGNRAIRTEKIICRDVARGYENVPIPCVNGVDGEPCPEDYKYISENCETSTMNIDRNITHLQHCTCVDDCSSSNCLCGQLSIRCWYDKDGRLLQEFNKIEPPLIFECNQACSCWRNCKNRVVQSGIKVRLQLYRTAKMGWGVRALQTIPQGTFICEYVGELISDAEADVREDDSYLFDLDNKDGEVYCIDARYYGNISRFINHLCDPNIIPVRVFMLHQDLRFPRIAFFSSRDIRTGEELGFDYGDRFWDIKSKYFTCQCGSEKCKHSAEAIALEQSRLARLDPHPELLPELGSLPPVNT
T1 sequence (Q9H9B1 2-1298 limits assumed): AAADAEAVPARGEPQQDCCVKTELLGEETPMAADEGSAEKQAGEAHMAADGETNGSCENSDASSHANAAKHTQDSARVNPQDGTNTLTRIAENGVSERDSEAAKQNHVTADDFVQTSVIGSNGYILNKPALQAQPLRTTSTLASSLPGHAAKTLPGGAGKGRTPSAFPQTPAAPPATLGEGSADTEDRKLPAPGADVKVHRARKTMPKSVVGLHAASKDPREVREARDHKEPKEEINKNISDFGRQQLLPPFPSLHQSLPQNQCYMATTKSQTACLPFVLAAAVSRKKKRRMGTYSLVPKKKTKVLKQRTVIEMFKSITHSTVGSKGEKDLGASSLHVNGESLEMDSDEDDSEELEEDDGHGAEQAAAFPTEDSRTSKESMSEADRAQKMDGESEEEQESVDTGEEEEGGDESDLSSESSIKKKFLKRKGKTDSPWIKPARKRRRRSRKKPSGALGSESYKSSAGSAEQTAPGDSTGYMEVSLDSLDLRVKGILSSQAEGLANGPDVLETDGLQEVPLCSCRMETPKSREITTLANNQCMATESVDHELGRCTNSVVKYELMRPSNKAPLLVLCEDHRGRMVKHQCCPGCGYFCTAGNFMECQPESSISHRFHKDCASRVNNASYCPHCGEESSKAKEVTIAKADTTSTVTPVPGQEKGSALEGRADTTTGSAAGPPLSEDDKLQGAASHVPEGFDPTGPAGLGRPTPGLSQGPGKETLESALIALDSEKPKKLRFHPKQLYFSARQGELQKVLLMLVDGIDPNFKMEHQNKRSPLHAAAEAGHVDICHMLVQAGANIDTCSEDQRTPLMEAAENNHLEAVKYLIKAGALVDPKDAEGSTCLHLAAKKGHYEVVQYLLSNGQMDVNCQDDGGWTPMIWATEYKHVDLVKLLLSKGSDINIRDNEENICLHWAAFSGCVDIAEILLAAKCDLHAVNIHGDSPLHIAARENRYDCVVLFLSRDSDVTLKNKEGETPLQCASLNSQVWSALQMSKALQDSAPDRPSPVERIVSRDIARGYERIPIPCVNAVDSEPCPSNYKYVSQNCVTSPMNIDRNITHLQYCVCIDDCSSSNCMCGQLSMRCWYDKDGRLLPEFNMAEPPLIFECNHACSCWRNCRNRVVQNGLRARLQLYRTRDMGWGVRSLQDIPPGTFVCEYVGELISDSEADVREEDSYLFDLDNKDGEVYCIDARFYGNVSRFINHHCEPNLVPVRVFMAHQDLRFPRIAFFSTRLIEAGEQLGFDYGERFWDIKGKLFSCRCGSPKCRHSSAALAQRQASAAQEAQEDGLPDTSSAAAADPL

[1] = SILAC ratio, pull-down 3xMBT vs 3xMBTD355N
[2] = SILAC ratio DMSO/UNC0638 of protein pulled down with 3xMBT
[3] = SILAC ratio 3xMBT vs 3xMBTD355N pull-down, 293T cells, all values in log base 2
[4] = SILAC ratio DMSO relative to UNC0638, pull-down with 3xMBT, all values in log base 2

B1: PPIL4 (protein, UniProt Q8WUA2 1-492, looked up)
Peptidyl-prolyl cis-trans …: MAVLLETTLGDVVIDLYTEERPRACLNFLKLCKIKYYNYCLIHNVQRDFIIQTGDPTGTGRGGESIFGQLYGDQASFFEAEKVPRIKHKKKGTVSMVNNGSDQHGSQFLITTGENLDYLDGVHTVFGEVTEGMDIIKKINETFVDKDFVPYQDIRINHTVILDDPFDDPPDLLIPDRSPEPTREQLDSGRIGADEEIDDFKGRSAEEVEEIKAEKEAKTQAILLEMVGDLPDADIKPPENVLFVCKLNPVTTDEDLEIIFSRFGPIRSCEVIRDWKTGESLCYAFIEFEKEEDCEKAFFKMDNVLIDDRRIHVDFSQSVAKVKWKGKGGKYTKSDFKEYEKEQDKPPNLVLKDKVKPKQDTKYDLILDEQAEDSKSSHSHTSKKHKKKTHHCSEEKEDEDYMPIKNTNQDIYREMGFGHYEEEESCWEKQKSEKRDRTQNRSRSRSRERDGHYSNSHKSKYQTDLYERERSKKRDRSRSPKKSKDKEKSKYR
3xMBT/D355N UNC Heavy (3×MBT domain of L3MBTL1; [1]): 1.63 log base 2
3xMBT/D355N UNC Light (3×MBT domain of L3MBTL1; [1]): 2.38 log base 2
Relative to UNC0638 UNC Heavy (G9a and GLP; [2]): 0.46 log base 2
Relative to UNC0638 UNC Light (G9a and GLP; [2]): 0.50 log base 2
Relative to UNC0638 Average (G9a and GLP): 0.48 log base 2
Candidate G9a/GLP target (G9a and GLP; reduced association with 3xMBT after UNC0638 treatment): ✓

B3: MAP4 (protein, UniProt P27816 2-1152, looked up)
Microtubule-associated …: ADLSLADALTEPSPDIEGEIKRDFIATLEAEAFDDVVGETVGKTDYIPLLDVDEKTGNSESKKKPCSETSQIEDTPSSKPTLLANGGHGVEGSDTTGSPTEFLEEKMAYQEYPNSQNWPEDTNFCFQPEQVVDPIQTDPFKMYHDDDLADLVFPSSATADTSIFAGQNDPLKDSYGMSPCNTAVVPQGWSVEALNSPHSESFVSPEAVAEPPQPTAVPLELAKEIEMASEERPPAQALEIMMGLKTTDMAPSKETEMALAKDMALATKTEVALAKDMESPTKLDVTLAKDMQPSMESDMALVKDMELPTEKEVALVKDVRWPTETDVSSAKNVVLPTETEVAPAKDVTLLKETERASPIKMDLAPSKDMGPPKENKKETERASPIKMDLAPSKDMGPPKENKIVPAKDLVLLSEIEVAQANDIISSTEISSAEKVALSSETEVALARDMTLPPETNVILTKDKALPLEAEVAPVKDMAQLPETEIAPAKDVAPSTVKEVGLLKDMSPLSETEMALGKDVTPPPETEVVLIKNVCLPPEMEVALTEDQVPALKTEAPLAKDGVLTLANNVTPAKDVPPLSETEATPVPIKDMEIAQTQKGISEDSHLESLQDVGQSAAPTFMISPETVTGTGKKCSLPAEEDSVLEKLGERKPCNSQPSELSSETSGIARPEEGRPVVSGTGNDITTPPNKELPPSPEKKTKPLATTQPAKTSTSKAKTQPTSLPKQPAPTTIGGLNKKPMSLASGLVPAAPPKRPAVASARPSILPSKDVKPKPIADAKAPEKRASPSKPASAPASRSGSKSTQTVAKTTTAAAVASTGPSSRSPSTLLPKKPTAIKTEGKPAEVKKMTAKSVPADLSRPKSTSTSSMKKTTTLSGTAPAAGVVPSRVKATPMPSRPSTTPFIDKKPTSAKPSSTTPRLSRLATNTSAPDLKNVRSKVGSTENIKHQPGGGRAKVEKKTEAAATTRKPESNAVTKTAGPIASAQKQPAGKVQIVSKKVSYSHIQSKCGSKDNIKHVPGGGNVQIQNKKVDISKVSSKCGSKANIKHKPGGGDVKIESQKLNFKEKAQAKVGSLDNVGHLPAGGAVKTEGGGSEAPLCPGPPAGEEPAISEAAPEAGAPTSASGLNGHPTLSGGGDQREAQTLDSQIQETSI
3xMBT/D355N UNC Heavy (3×MBT domain of L3MBTL1; [3]): 1.41 log base 2
3xMBT/D355N UNC Light (3×MBT domain of L3MBTL1; [3]): 2.75 log base 2
Relative to UNC0638 UNC Heavy (G9a and GLP; [4]): 0.13 log base 2
Relative to UNC0638 UNC Light (G9a and GLP; [4]): 0.03 log base 2
Relative to UNC0638 Average (G9a and GLP; all values in log base 2): 0.08 log base 2

Now from value to molecule, other results behind:

Relative to UNC0638 UNC Heavy (G9a and GLP; [4]): 0.12 log base 2
Relative to UNC0638 UNC Light (G9a and GLP; [4]): 0.04 log base 2
Relative to UNC0638 Average (G9a and GLP; all values in log base 2): 0.08 log base 2
B2: UBXN1 (protein, UniProt Q04323 2-297, looked up)
UBX domain-containing protein …: AELTALESLIEMGFPRGRAEKALALTGNQGIEAAMDWLMEHEDDPDVDEPLETPLGHILGREPTSSEQGGLEGSGSAAGEGKPALSEEERQEQTKRMLELVAQKQREREEREEREALERERQRRRQGQELSAARQRLQEDEMRRAAEERRREKAEELAARQRVREKIERDKAERAKKYGGSVGSQPPPVAPEPGPVPSSPSQEPPTKREYDQCRIQVRLPDGTSLTQTFRAREQLAAVRLYVELHRGEELGGGQDPVQLLSGFPRRAFSEADMERPLQELGLVPSAVLIVAKKCPS
3xMBT/D355N UNC Heavy (3×MBT domain of L3MBTL1; [3]): 0.62 log base 2
3xMBT/D355N UNC Light (3×MBT domain of L3MBTL1; [3]): 1.91 log base 2

Relative to UNC0638 UNC Heavy (G9a and GLP; [4]): 0.27 log base 2
Relative to UNC0638 UNC Light (G9a and GLP; [4]): −0.12 log base 2
Relative to UNC0638 Average (G9a and GLP; all values in log base 2): 0.07 log base 2
B4: SNRNP40 (protein, UniProt Q96DI7 1-357, looked up)
U5 small nuclear …: MIEQQKRKGPELPLVPVKRQRHELLLGAGSGPGAGQQQATPGALLQAGPPRCSSLQAPIMLLSGHEGEVYCCKFHPNGSTLASAGFDRLILLWNVYGDCDNYATLKGHSGAVMELHYNTDGSMLFSASTDKTVAVWDSETGERVKRLKGHTSFVNSCYPARRGPQLVCTGSDDGTVKLWDIRKKAAIQTFQNTYQVLAVTFNDTSDQIISGGIDNDIKVWDLRQNKLTYTMRGHADSVTGLSLSSEGSYLLSNAMDNTVRVWDVRPFAPKERCVKIFQGNVHNFEKNLLRCSWSPDGSKIAAGSADRFVYVWDTTSRRILYKLPGHAGSINEVAFHPDEPIIISASSDKRLYMGEIQ
3xMBT/D355N UNC Heavy (3×MBT domain of L3MBTL1; [3]): 2.39 log base 2
3xMBT/D355N UNC Light (3×MBT domain of L3MBTL1; [3]): 2.64 log base 2
